Target: CRP/Fn binding (CRP captured on immobilized CRP antibody, Fn injected) (Homo sapiens, UniProt P02741+P02751)
Experiment: SPR (Biacore X) in vitro model of the inhibitory effect of test compounds on CRP/Fn binding
Design: 10 μL of CRP antigen 6 (50 μg/mL) was injected in flow channel 2
Details: for inhibitory effect on CRP/Fn binding (in words): at the conditions of Table 3; for SPR Response (RU): control without inhibitor 118 RU
Method: An in vitro model was designed to determine inhibitory effect of several different test compounds on CRP/Fn binding. Surface plasmon resonance (SPR) measurements were performed using a Biacore® X system and amine coupling kit for immobilization. […] All experiments were performed at 25° C., unless otherwise specified. The SPR technology used is based on optical phenomena in which the measured response depends on a change in refractive index in the close vicinity of the sensor chip surface. The response in such systems is proportional to the mass of analyte bound to the surface. The SPR method was used to monitor continuous analysis over the course of the interaction. […] (catalog number A58110228P), which specifically binds to calcium/phosphocholine site of CRP, was immobilized on a surface of a sensor chip 23 (CM5, carboxyl functionalized) via amine coupling chemistry as is generally known in the art. Following immobilization of the antibody to the surface of the chip 23, 10 μL of CRP antigen 6 (50 μg/mL) was injected in flow channel 2. Following this injection, 60 μL of an Fn solution 8 was injected into both flow channel 1 and flow channel 2 for two minutes duration (association phase), followed by 2 minutes delay time (dissociation phase). […] The process was repeated with an Fn solution including no inhibitor material as a control as well as several Fn solutions including various inhibitor compounds as herein described. Fn concentration was 1 mg/mL in all solutions.

[1] = inhibitor 50 μM, Fn 1 mg/mL, 25° C.
[2] = inhibitor 50 μM, Fn 1 mg/mL, 25° C., relative to control without inhibitor

Chain of CRP/Fn binding (CRP captured on immobilized CRP antibody, Fn injected) (P02741 19-224): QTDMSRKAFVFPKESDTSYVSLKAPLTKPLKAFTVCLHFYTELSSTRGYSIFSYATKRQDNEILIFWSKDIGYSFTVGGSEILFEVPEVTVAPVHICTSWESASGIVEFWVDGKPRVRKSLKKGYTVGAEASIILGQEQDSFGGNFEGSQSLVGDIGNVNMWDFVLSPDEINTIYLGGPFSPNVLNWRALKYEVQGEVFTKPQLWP
Chain of CRP/Fn binding (CRP captured on immobilized CRP antibody, Fn injected) (P02751 32-2477): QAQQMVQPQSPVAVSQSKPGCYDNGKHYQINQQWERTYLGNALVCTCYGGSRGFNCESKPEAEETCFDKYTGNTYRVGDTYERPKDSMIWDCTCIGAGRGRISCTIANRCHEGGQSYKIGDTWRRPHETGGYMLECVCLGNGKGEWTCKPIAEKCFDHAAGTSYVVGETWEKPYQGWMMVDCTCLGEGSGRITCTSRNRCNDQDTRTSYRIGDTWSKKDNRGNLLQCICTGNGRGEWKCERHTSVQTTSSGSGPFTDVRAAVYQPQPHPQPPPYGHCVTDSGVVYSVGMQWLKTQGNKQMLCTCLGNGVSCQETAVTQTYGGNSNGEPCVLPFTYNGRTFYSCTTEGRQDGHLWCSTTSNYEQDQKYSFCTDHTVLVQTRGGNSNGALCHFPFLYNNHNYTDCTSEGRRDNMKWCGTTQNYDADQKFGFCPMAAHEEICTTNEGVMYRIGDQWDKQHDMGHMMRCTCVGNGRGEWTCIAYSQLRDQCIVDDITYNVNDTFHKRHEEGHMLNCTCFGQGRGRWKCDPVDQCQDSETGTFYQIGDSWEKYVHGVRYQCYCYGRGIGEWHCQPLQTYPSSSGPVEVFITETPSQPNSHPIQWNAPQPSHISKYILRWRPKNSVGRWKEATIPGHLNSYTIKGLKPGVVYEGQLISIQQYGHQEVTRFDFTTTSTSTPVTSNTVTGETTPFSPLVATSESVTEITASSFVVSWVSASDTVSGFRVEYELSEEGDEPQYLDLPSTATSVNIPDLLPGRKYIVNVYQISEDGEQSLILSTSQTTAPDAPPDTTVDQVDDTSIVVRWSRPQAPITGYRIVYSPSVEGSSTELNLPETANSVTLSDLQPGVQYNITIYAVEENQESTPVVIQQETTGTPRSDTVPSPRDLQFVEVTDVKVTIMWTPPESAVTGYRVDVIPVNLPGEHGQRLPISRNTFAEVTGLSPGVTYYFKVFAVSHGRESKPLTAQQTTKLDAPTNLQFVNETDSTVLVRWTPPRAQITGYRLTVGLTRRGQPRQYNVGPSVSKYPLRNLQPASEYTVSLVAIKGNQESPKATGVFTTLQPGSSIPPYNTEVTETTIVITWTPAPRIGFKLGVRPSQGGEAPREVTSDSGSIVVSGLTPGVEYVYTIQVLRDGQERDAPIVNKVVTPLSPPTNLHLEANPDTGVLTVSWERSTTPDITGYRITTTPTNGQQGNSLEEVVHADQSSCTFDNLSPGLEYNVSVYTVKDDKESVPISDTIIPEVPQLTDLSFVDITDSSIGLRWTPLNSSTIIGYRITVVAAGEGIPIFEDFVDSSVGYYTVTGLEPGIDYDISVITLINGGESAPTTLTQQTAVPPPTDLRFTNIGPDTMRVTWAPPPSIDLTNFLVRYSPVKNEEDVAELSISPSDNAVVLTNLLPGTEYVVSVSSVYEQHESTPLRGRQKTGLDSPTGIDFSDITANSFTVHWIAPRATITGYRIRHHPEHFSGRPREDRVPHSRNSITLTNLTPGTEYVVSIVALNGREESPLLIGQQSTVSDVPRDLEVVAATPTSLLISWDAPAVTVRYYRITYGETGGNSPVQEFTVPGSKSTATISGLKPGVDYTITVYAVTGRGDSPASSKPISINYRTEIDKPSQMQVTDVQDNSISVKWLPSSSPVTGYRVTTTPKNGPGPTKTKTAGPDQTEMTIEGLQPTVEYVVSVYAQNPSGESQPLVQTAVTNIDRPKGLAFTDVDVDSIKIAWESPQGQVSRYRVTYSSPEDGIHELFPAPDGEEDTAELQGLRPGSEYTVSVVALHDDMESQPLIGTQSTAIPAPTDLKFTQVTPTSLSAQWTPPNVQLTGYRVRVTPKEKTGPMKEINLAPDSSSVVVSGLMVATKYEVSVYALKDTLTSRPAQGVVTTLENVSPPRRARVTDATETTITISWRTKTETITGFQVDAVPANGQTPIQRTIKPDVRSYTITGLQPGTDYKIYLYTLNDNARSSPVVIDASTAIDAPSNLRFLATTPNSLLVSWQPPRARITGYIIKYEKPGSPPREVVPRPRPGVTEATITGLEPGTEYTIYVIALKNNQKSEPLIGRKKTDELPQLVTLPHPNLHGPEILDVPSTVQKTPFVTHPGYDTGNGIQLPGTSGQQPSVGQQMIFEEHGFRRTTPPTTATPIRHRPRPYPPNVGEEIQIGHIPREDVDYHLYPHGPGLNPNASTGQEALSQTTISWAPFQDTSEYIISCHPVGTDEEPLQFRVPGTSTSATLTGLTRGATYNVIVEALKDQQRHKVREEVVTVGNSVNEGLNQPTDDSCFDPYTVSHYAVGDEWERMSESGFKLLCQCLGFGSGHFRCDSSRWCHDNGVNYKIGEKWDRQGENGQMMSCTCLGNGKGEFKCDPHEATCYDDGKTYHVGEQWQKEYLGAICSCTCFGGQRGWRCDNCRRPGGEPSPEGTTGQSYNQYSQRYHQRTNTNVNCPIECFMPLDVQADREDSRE

Row | Molecule | inhibitory effect on CRP/Fn binding (in words) | SPR Response (RU) [1] [RU] | % Inhibition [2] [%] | SPR Response (RU) (inhibitor 40 μM, Fn 1 mg/mL, 25° C.) | % Inhibition (inhibitor 40 μM, Fn 1 mg/mL, 25° C., relative to control without inhibitor) [%] | SPR Response (RU) (inhibitor 200 μM, Fn 1 mg/mL, 25° C.) | inhibition at 200 µM (inhibitor 200 μM, Fn 1 mg/mL, 25° C., relative to control without inhibitor) [%]
1 | 9-mer: 9 mer segment of SEQ ID NO.:11, specifically the first nine amino acids of SEQ ID NO.:11 (PRCGNPDVA; listed as Homo sapiens) | no significant effect | 119 | 0.0 | – | – | – | –
2 | CC/C=C\C[C@H]1C(=O)CC[C@@H]1CC(=O)O [Jasmonic acid, jasmonic acid] | somewhat less inhibitory effect | – | – | 94 | 20.4 | – | –
3 | C=C1C[C@]23C[C@@]1(O)CC[C@H]2[C@@]12C=C[C@H](O)[C@@](C)(C(=O)O1)[C@H]2[C@@H]3C(=O)O [Gibberellic acid, gibberellic acid] | somewhat less inhibitory effect | – | – | – | – | 90 | 23.7
4 | 10-mer: 10-mer polypeptide of SEQ ID NO.:12, exemplary inhibitor of CRP/Fn complexation (NYNFFPRKPK; listed as Homo sapiens) | somewhat less inhibitory effect | 76 | 35.6 | – | – | – | –
